Laboratory results: article PMC9248843, “Structural and biophysical studies of new L-asparaginase variants: lessons from random mutagenesis of the prototypic Escherichia coli Ntn-amidohydrolase” (Acta Crystallographica. Section D, Structural Biology, 2022)

Target: the molecule itself
Assay: SEC; SEC profiles of Supplementary Fig. S4; before biophysical measurements proteins were run on Superdex 75 10/300 GL in 20 mM phosphate buffer pH 7.5

B1: EcAIII variant RDM1-64, unprocessed immature precursor (enzyme, Escherichia coli, UniProt P37595 1-321, looked up)
chain: MGKAVIAIHGGAGAISRAQMSLQQELRYIEALSAIVETGQKMLEAGESALDVVTEAVRLLEECPLFNAGIGAVFTRDETHELDACVMDGNTLKAGAVAGVSHLRNPVLAARLVMEQSPHVMMIGEGAENFAFARGMERVSPEIFSTSLRYEQLLAARKEGATVLDHSGAPLDEKQKMGTVGAVALDLDGNLAAATSTGGMTNKLPIVVGIGPLVGAGCYANNASVAVSCTGTGEVFIRALAAYDIAALMDYGGLSLAEACERVVMEKLPALGGSGGLIAIDHEGNVALPFNTEGMYRAWGYAGDTPTTGIYREKGDTVATQ
notes: EcAIII of Escherichia coli, uncleaved immature precursor (α and β on one chain, linker intact), with the substitutions of RDM1-64; No ability to process into α/β subunits; EcAIII gene in pET-11d; source: E. coli BL21 Gold, purified (DEAE-Sepharose, SEC)
B1: binds.
